Source: US5534410

Columns and labels:
[1] = biological target: Sp1, over-expressed and purified from HeLa cells infected with a vaccinia virus expression vector (Homo sapiens (Human)) (UniProt P08047); assay: 35S-TAF110 (reticulocyte lysate) on DNA-bound Sp1 resin, SDS-PAGE, PhosphorImager
[2] = biological target: GAL4-Sp1B domain fusion (Homo sapiens (Human)) (UniProt P08047)

fold greater binding to the Sp1-containing resin than to the resin without Sp1 [1] [fold] | transcription of a reporter gene dependent on GAL4 binding sites (CAT), superactivation assay in Drosophila Schneider cells [2] [fold] | Substance
60 |  | Drosophila TAF110 (dTAFII110), full-length
 | 50 | Sp1(N539), the gln-rich A and B domains of Sp1 (from UniProt P08047)
